Results from the Human Domainome abundance scans (Beltran et al. 2025).
± gives the uncertainty stated by the source.

B1: Ankyrin repeat and SOCS box protein 14, residues 532 to 572; numbered along this chain, A6NK59 (parent)
chain: RSLKHLCRLKIRKCMGRLHLRCPVFMSFLPLPNRLKAYVLY

Variants of: B1
Assay: abundance fitness (aPCA) (normalised: wild type 0, dead -1); higher = more abundant; growth selection in yeast, the domain comes from the species named
Details: Homo sapiens

Variant	abundance fitness
RSLKHLCRLKIRKCMGRLRLRCPVFMSFLPLPNRLKAYVLY	0.018 ± 0.047
RSLKHLCRLKIRKCMGRLTLRCPVFMSFLPLPNRLKAYVLY	-0.22 ± 0.066
RSLKHLCRLKIRKCMGRLVLRCPVFMSFLPLPNRLKAYVLY	-0.111 ± 0.055
RSLKHLCRLKIRKCMGRLWLRCPVFMSFLPLPNRLKAYVLY	-0.053 ± 0.077
RSLKHLCRLKIRKCMGRLYLRCPVFMSFLPLPNRLKAYVLY	-0.336 ± 0.15
RSLKHLCRLKIRKCMGRLHARCPVFMSFLPLPNRLKAYVLY	0.083 ± 0.051
RSLKHLCRLKIRKCMGRLHCRCPVFMSFLPLPNRLKAYVLY	-0.296 ± 0.12
RSLKHLCRLKIRKCMGRLHDRCPVFMSFLPLPNRLKAYVLY	0.3 ± 0.39
RSLKHLCRLKIRKCMGRLHERCPVFMSFLPLPNRLKAYVLY	0.249 ± 0.069
RSLKHLCRLKIRKCMGRLHFRCPVFMSFLPLPNRLKAYVLY	-0.026 ± 0.069
RSLKHLCRLKIRKCMGRLHGRCPVFMSFLPLPNRLKAYVLY	-0.089 ± 0.06
RSLKHLCRLKIRKCMGRLHIRCPVFMSFLPLPNRLKAYVLY	-0.308 ± 0.28
RSLKHLCRLKIRKCMGRLHKRCPVFMSFLPLPNRLKAYVLY	0.101 ± 0.1
RSLKHLCRLKIRKCMGRLHMRCPVFMSFLPLPNRLKAYVLY	-0.098 ± 0.1
RSLKHLCRLKIRKCMGRLHQRCPVFMSFLPLPNRLKAYVLY	-0.087 ± 0.064
RSLKHLCRLKIRKCMGRLHRRCPVFMSFLPLPNRLKAYVLY	-0.348 ± 0.069
RSLKHLCRLKIRKCMGRLHSRCPVFMSFLPLPNRLKAYVLY	-0.093 ± 0.057
RSLKHLCRLKIRKCMGRLHTRCPVFMSFLPLPNRLKAYVLY	0.069 ± 0.24
RSLKHLCRLKIRKCMGRLHVRCPVFMSFLPLPNRLKAYVLY	-0.233 ± 0.12
RSLKHLCRLKIRKCMGRLHWRCPVFMSFLPLPNRLKAYVLY	-0.285 ± 0.07
RSLKHLCRLKIRKCMGRLHYRCPVFMSFLPLPNRLKAYVLY	-0.655 ± 0.12

Variant	abundance fitness
RSLKHLCRLKIRKCMGRLHLACPVFMSFLPLPNRLKAYVLY	-0.076 ± 0.084
RSLKHLCRLKIRKCMGRLHLCCPVFMSFLPLPNRLKAYVLY	-0.253 ± 0.092
RSLKHLCRLKIRKCMGRLHLDCPVFMSFLPLPNRLKAYVLY	-0.143 ± 0.078
RSLKHLCRLKIRKCMGRLHLECPVFMSFLPLPNRLKAYVLY	-0.508 ± 0.1
RSLKHLCRLKIRKCMGRLHLFCPVFMSFLPLPNRLKAYVLY	-0.102 ± 0.24
RSLKHLCRLKIRKCMGRLHLGCPVFMSFLPLPNRLKAYVLY	-0.061 ± 0.051
RSLKHLCRLKIRKCMGRLHLHCPVFMSFLPLPNRLKAYVLY	-0.295 ± 0.19
RSLKHLCRLKIRKCMGRLHLICPVFMSFLPLPNRLKAYVLY	0.207 ± 0.083
RSLKHLCRLKIRKCMGRLHLKCPVFMSFLPLPNRLKAYVLY	-0.029 ± 0.086
RSLKHLCRLKIRKCMGRLHLLCPVFMSFLPLPNRLKAYVLY	0.196 ± 0.049
RSLKHLCRLKIRKCMGRLHLMCPVFMSFLPLPNRLKAYVLY	0.129 ± 0.11
RSLKHLCRLKIRKCMGRLHLNCPVFMSFLPLPNRLKAYVLY	0.096 ± 0.2
RSLKHLCRLKIRKCMGRLHLPCPVFMSFLPLPNRLKAYVLY	-0.322 ± 0.059
RSLKHLCRLKIRKCMGRLHLQCPVFMSFLPLPNRLKAYVLY	-0.623 ± 0.21
RSLKHLCRLKIRKCMGRLHLSCPVFMSFLPLPNRLKAYVLY	-0.147 ± 0.066
RSLKHLCRLKIRKCMGRLHLTCPVFMSFLPLPNRLKAYVLY	-0.178 ± 0.052
RSLKHLCRLKIRKCMGRLHLVCPVFMSFLPLPNRLKAYVLY	0.009 ± 0.05
RSLKHLCRLKIRKCMGRLHLWCPVFMSFLPLPNRLKAYVLY	0.275 ± 0.057
RSLKHLCRLKIRKCMGRLHLRDPVFMSFLPLPNRLKAYVLY	-1.02 ± 0.39
RSLKHLCRLKIRKCMGRLHLREPVFMSFLPLPNRLKAYVLY	-0.455 ± 0.069
RSLKHLCRLKIRKCMGRLHLRFPVFMSFLPLPNRLKAYVLY	0.057 ± 0.12

Variant	abundance fitness
RSLKHLCRLKIRKCMGRLHLRGPVFMSFLPLPNRLKAYVLY	-0.339 ± 0.055
RSLKHLCRLKIRKCMGRLHLRHPVFMSFLPLPNRLKAYVLY	-0.052 ± 0.088
RSLKHLCRLKIRKCMGRLHLRIPVFMSFLPLPNRLKAYVLY	0.178 ± 0.091
RSLKHLCRLKIRKCMGRLHLRKPVFMSFLPLPNRLKAYVLY	-0.519 ± 0.12
RSLKHLCRLKIRKCMGRLHLRLPVFMSFLPLPNRLKAYVLY	0.243 ± 0.052
RSLKHLCRLKIRKCMGRLHLRMPVFMSFLPLPNRLKAYVLY	0.162 ± 0.071
RSLKHLCRLKIRKCMGRLHLRNPVFMSFLPLPNRLKAYVLY	-0.719 ± 0.29
RSLKHLCRLKIRKCMGRLHLRPPVFMSFLPLPNRLKAYVLY	-0.086 ± 0.069
RSLKHLCRLKIRKCMGRLHLRQPVFMSFLPLPNRLKAYVLY	-0.521 ± 0.14
RSLKHLCRLKIRKCMGRLHLRRPVFMSFLPLPNRLKAYVLY	-0.282 ± 0.057
RSLKHLCRLKIRKCMGRLHLRSPVFMSFLPLPNRLKAYVLY	-0.247 ± 0.059
RSLKHLCRLKIRKCMGRLHLRVPVFMSFLPLPNRLKAYVLY	0.064 ± 0.05
RSLKHLCRLKIRKCMGRLHLRWPVFMSFLPLPNRLKAYVLY	0.218 ± 0.06
RSLKHLCRLKIRKCMGRLHLRYPVFMSFLPLPNRLKAYVLY	-0.139 ± 0.12
RSLKHLCRLKIRKCMGRLHLRCAVFMSFLPLPNRLKAYVLY	0.321 ± 0.059
RSLKHLCRLKIRKCMGRLHLRCCVFMSFLPLPNRLKAYVLY	0.28 ± 0.06
RSLKHLCRLKIRKCMGRLHLRCDVFMSFLPLPNRLKAYVLY	0.315 ± 0.057
RSLKHLCRLKIRKCMGRLHLRCEVFMSFLPLPNRLKAYVLY	0.36 ± 0.071
RSLKHLCRLKIRKCMGRLHLRCFVFMSFLPLPNRLKAYVLY	0.078 ± 0.1
RSLKHLCRLKIRKCMGRLHLRCGVFMSFLPLPNRLKAYVLY	0.198 ± 0.05
